# Measurements taken from PMC4862330.
# Target: F-actin (polymerized rabbit skeletal muscle G-actin) (rabbit) (UniProt P68135)
# Experiment: co-sedimentation
substance,measurement,value
talin ABS2 6× mutant (K922E/Q923E/Q930E/K1500E/R1510E/K1522E) (from UniProt P26039 1-2541) (domain or fragment),percent decrease in F-actin binding compared with wild type,60%
